Biological target: BACE1-GFP (UniProt P56817)
Test: co-IP

Sequence of UniProt P56817 (P56817 46-501): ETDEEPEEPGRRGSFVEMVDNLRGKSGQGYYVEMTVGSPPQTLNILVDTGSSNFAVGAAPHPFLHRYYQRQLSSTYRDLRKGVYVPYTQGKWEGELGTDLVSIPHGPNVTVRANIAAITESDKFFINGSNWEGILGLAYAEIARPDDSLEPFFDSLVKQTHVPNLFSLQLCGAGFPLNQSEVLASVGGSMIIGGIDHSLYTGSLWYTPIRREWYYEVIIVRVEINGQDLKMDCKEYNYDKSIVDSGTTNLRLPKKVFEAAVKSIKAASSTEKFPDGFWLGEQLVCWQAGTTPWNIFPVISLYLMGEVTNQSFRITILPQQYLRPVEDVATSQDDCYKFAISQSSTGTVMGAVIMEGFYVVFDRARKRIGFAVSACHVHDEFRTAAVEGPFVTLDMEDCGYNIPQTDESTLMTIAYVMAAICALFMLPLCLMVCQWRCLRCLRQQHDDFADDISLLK

reduction of co-immunoprecipitated Bin1 against Bin1-WT: 65%
Substance: Bin1-KR (neuronal Bin1-MYC with the LOAD mutation K358R, rs138047593) (from UniProt O08539-1 1-588) (natural protein)

Reference: article doi:10.1101/2021.06.09.447716
